Measured values taken from publication PMC5063618 (Molecular Biology of the Cell, 2016).
Where two headings read alike, the source gives them in different places. Values belong to the binder of their own block, whether it stands above or below them.

How the values were obtained:
[1] = target: T1, rabbit skeletal muscle actin, as filaments (rabbit, UniProt P68135 1-377); assay: co-sedimentation
[2] = target: T1, rabbit skeletal muscle actin, as …; assay: co-sedimentation; remark: listed apart in the source
[3] = target: T1, rabbit skeletal muscle actin, as …; assay: co-sedimentation; remark: listed apart in the source
[4] = target: T1, rabbit skeletal muscle actin, as …; assay: co-sedimentation; remark: listed apart in the source
[5] = target: T1, rabbit skeletal muscle actin, as …; assay: co-sedimentation; remark: listed apart in the source
[6] = target: T1, rabbit skeletal muscle actin, as …; assay: co-sedimentation; remark: listed apart in the source
[7] = target: T1, rabbit skeletal muscle actin, as …; assay: co-sedimentation; remark: listed apart in the source
AUC = target: the molecule itself; assay: AUC
[8] = target: T1, rabbit skeletal muscle actin, as …; assay: TIRF microscopy, fluorescence decay after washout
[9] = target: T1, rabbit skeletal muscle actin, as …; assay: TIRF microscopy, fluorescence decay after washout; remark: listed apart in the source
[10] = target: T1, rabbit skeletal muscle actin, as …; assay: TIRF microscopy, fluorescence decay after washout; remark: listed apart in the source
[11] = target: T1, rabbit skeletal muscle actin, as …; assay: TIRF microscopy, fluorescence decay after washout; remark: listed apart in the source
[12] = target: T1, rabbit skeletal muscle actin, as …; assay: TIRF microscopy, fluorescence decay after washout; remark: listed apart in the source
[13] = target: T1, rabbit skeletal muscle actin, as …; assay: TIRF microscopy, fluorescence decay after washout; remark: listed apart in the source
[14] = target: T1, rabbit skeletal muscle actin, as …; assay: TIRF microscopy, fluorescence decay after washout; remark: listed apart in the source
[15] = target: T1, rabbit skeletal muscle actin, as …; assay: TIRF microscopy, fluorescence decay after washout; remark: listed apart in the source
[16] = target: T1, rabbit skeletal muscle actin, as …; assay: TIRF microscopy, fluorescence decay after washout; remark: listed apart in the source
[17] = target: T1, rabbit skeletal muscle actin, as …; assay: TIRF microscopy, fluorescence decay after washout; remark: listed apart in the source
[18] = target: T1, rabbit skeletal muscle actin, as …; assay: TIRF microscopy, fluorescence decay after washout; remark: listed apart in the source
[19] = target: T1, rabbit skeletal muscle actin, as …; assay: TIRF microscopy, fluorescence decay after washout; remark: listed apart in the source
[20] = target: T1, rabbit skeletal muscle actin, as …; assay: TIRF microscopy, fluorescence decay after washout; remark: listed apart in the source

- Kd [1]: 600 nM
- Kd [2]: 200 nM
- Kd [3]: 2800 nM
- Kd [4]: 800 nM
- Kd [5]: 500 nM
- Kd [6]: 400 nM
- Kd [7]: 1100 nM
B1: human Drp1 isoform 000 (dynamin-related protein-1), wild type (enzyme, UniProt O00429-4 1-699, looked up)
chain: MEALIPVINKLQDVFNTVGADIIQLPQIVVVGTQSSGKSSVLESLVGRDLLPRGTGIVTRRPLILQLVHVSQEDKRKTTGEENGVEAEEWGKFLHTKNKLYTDFDEIRQEIENETERISGNNKGVSPEPIHLKIFSPNVVNLTLVDLPGMTKVPVGDQPKDIELQIRELILRFISNPNSIILAVTAANTDMATSEALKISREVDPDGRRTLAVITKLDLMDAGTDAMDVLMGRVIPVKLGIIGVVNRSQLDINNKKSVTDSIRDEYAFLQKKYPSLANRNGTKYLARTLNRLLMHHIRDCLPELKTRINVLAAQYQSLLNSYGEPVDDKSATLLQLITKFATEYCNTIEGTAKYIETSELCGGARICYIFHETFGRTLESVDPLGGLNTIDILTAIRNATGPRPALFVPEVSFELLVKRQIKRLEEPSLRCVELVHEEMQRIIQHCSNYSTQELLRFPKLHDAIVEVVTCLLRKRLPVTNEMVHNLVAIELAYINTKHPDFADACGLMNNNIEEQRRNRLARELPSAVSRDKVASGGGGVGDGVQEPTTGNWRGMLKTSKAEELLAEEKSKPIPIMPASPQKGHAVNLLDVPVPVARKLSAREQRDCEVIERLIKSYFLIVRKNIQDSVPKAVMHFLVNHVKDTLQSELVGQLYKSSLLDDLLTESEDMAQRRKEAADMLKALQGASQIIAEIRETHLW
- stoichiometry N (AUC): 4

- t1/2 of dissociation [8]: 93.1 ± 88 s
- t1/2 of dissociation [9]: 40 ± 20.3 s
- t1/2 of dissociation [10]: 9.8 s
- t1/2 of dissociation [11]: 48.7 ± 20.6 s
- t1/2 of dissociation [12]: 93.2 ± 94.5 s
- t1/2 of dissociation [13]: 9.9 ± 4.4 s
- t1/2 of dissociation [14]: 16.5 ± 2.5 s
- t1/2 of dissociation [15]: 26.9 ± 20.6 s
- t1/2 of dissociation [16]: 84.1 ± 93.6 s
- t1/2 of dissociation [17]: 8.1 ± 4.3 s
- t1/2 of dissociation [18]: 4.1 ± 1.4 s
- t1/2 of dissociation [19]: 5.4 ± 2 s
- t1/2 of dissociation [20]: 115 ± 43.5 s
B2: GFP-Drp1 (human Drp1 isoform 000 with N-terminal GFP A206K) (enzyme)
chain: MEALIPVINKLQDVFNTVGADIIQLPQIVVVGTQSSGKSSVLESLVGRDLLPRGTGIVTRRPLILQLVHVSQEDKRKTTGEENGVEAEEWGKFLHTKNKLYTDFDEIRQEIENETERISGNNKGVSPEPIHLKIFSPNVVNLTLVDLPGMTKVPVGDQPKDIELQIRELILRFISNPNSIILAVTAANTDMATSEALKISREVDPDGRRTLAVITKLDLMDAGTDAMDVLMGRVIPVKLGIIGVVNRSQLDINNKKSVTDSIRDEYAFLQKKYPSLANRNGTKYLARTLNRLLMHHIRDCLPELKTRINVLAAQYQSLLNSYGEPVDDKSATLLQLITKFATEYCNTIEGTAKYIETSELCGGARICYIFHETFGRTLESVDPLGGLNTIDILTAIRNATGPRPALFVPEVSFELLVKRQIKRLEEPSLRCVELVHEEMQRIIQHCSNYSTQELLRFPKLHDAIVEVVTCLLRKRLPVTNEMVHNLVAIELAYINTKHPDFADACGLMNNNIEEQRRNRLARELPSAVSRDKVASGGGGVGDGVQEPTTGNWRGMLKTSKAEELLAEEKSKPIPIMPASPQKGHAVNLLDVPVPVARKLSAREQRDCEVIERLIKSYFLIVRKNIQDSVPKAVMHFLVNHVKDTLQSELVGQLYKSSLLDDLLTESEDMAQRRKEAADMLKALQGASQIIAEIRETHLW
